Test results published in the supplement of paper PMC12042874.
± gives the uncertainty stated by the source.

Experiment: amyloid nucleation score (Sup35N fusion, yeast selection) (log enrichment); library NNK3; higher = more nucleation; inactive = no reads after selection
Method in brief: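 DiMSum was used to calculate nucleation scores as log enrichment of output over input reads, centred on the mode score of non-aggregating sequences. Sequences with fewer than 100 input reads were not scored. Input and output came from Illumina sequencing of plasmid inserts in psi-negative yeast expressing peptides of 20 random codons fused to Sup35N, induced 24 hours with 100 μM copper sulfate and then grown 7 days at 30°C on medium lacking adenine and uracil.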

Question: With SRDTVRVLNLLGRKALMRGQ as the substance, how does the amyloid nucleation score read?
Answer: inactive

Question: With SREQIVCQVRSITLAYKNSV as the substance, how does the amyloid nucleation score read?
Answer: inactive

Question: With SRFEGLASDTDMYSRDSTWR as the substance, how does the amyloid nucleation score read?
Answer: inactive

Question: For SRFYETDYSYFSIKSYDAGG, which amyloid nucleation score is on record?
Answer: inactive

Question: For SRGLYKYLGLRFFMYGRVLR, which amyloid nucleation score is on record?
Answer: inactive

Question: With SRITYEGQSRGCTLGNGLKR as the substance, how does the amyloid nucleation score read?
Answer: inactive

Question: With SRKWCQFYSCIIYTTNLLGR as the substance, how does the amyloid nucleation score read?
Answer: 1.85 ± 0.069

Question: Which amyloid nucleation score does the source give for SRLIIVPCCLL here?
Answer: 0.478 ± 0.28

Question: With SRLMWSGNLWRILVWCFTSN as the substance, how does the amyloid nucleation score read?
Answer: inactive

Question: With SRMDNSDTIYNILLWTSSYS as the substance, how does the amyloid nucleation score read?
Answer: inactive

Question: For SRNSSIMCFL, which amyloid nucleation score is on record?
Answer: inactive

Question: Which amyloid nucleation score does the source give for SRQGVNQKRTVCWS here?
Answer: inactive

Question: For SRQKINHQCCYKFCVVDYY, which amyloid nucleation score is on record?
Answer: 1.56 ± 0.091

Question: For SRSCNVLSEWRGINVNGWGN, which amyloid nucleation score is on record?
Answer: -0.176 ± 1.1

Question: Which amyloid nucleation score does the source give for SRTLIIIVYFTTNIIVLEFY here?
Answer: inactive

Question: With SRVHEVLNFCTY as the substance, how does the amyloid nucleation score read?
Answer: inactive

Question: With SRWTCLNFVWSTSQHLQWN as the substance, how does the amyloid nucleation score read?
Answer: inactive

Question: Which amyloid nucleation score does the source give for SRWVLSWSIVITIHLDMRSL here?
Answer: inactive

Question: With SRYMARTSDPARYVTPVSNT as the substance, how does the amyloid nucleation score read?
Answer: inactive

Question: Which amyloid nucleation score does the source give for SRYTLNAFYMWG here?
Answer: 2.02 ± 0.1

Question: For SSCNLIWCFSSDAILKPLMQ, which amyloid nucleation score is on record?
Answer: 1.38 ± 0.093

Question: Which amyloid nucleation score does the source give for SSCSSDLAKQYGDMTFI here?
Answer: inactive

Question: Which amyloid nucleation score does the source give for SSFAGVFNFRDGTQSQILYV here?
Answer: inactive

Question: With SSGVTVDGSMCRI as the substance, how does the amyloid nucleation score read?
Answer: inactive

Question: With SSKASSFVFMACGPGTEVIG as the substance, how does the amyloid nucleation score read?
Answer: inactive

Question: Which amyloid nucleation score does the source give for SSKSSRLNMTVFSKTVMTIM here?
Answer: inactive

Question: With SSKYISFSTTSYCTGLYRTP as the substance, how does the amyloid nucleation score read?
Answer: 0.896 ± 0.16

Question: With SSLLYIDRIVLSRTVIPMLL as the substance, how does the amyloid nucleation score read?
Answer: inactive

Question: With SSLSDSDGSFLDIMGAYYWA as the substance, how does the amyloid nucleation score read?
Answer: inactive

Question: Which amyloid nucleation score does the source give for SSMWF here?
Answer: inactive

Question: With SSPKMMCSFFDMSTLPFVYD as the substance, how does the amyloid nucleation score read?
Answer: inactive

Question: Which amyloid nucleation score does the source give for SSQDVTALLSRLN here?
Answer: inactive

Question: Which amyloid nucleation score does the source give for SSSESKFLYTDMWHMYWDFC here?
Answer: 0.548 ± 0.14

Question: With SSSFVYFYSLVRFAPTLREY as the substance, how does the amyloid nucleation score read?
Answer: inactive

Question: With SSSMCYRCDLSMFLGSGRSG as the substance, how does the amyloid nucleation score read?
Answer: inactive

Question: With SSTMLTNIWHHPNHGVVWDR as the substance, how does the amyloid nucleation score read?
Answer: inactive

Question: With SSVKMTDLRH as the substance, how does the amyloid nucleation score read?
Answer: inactive

Question: Which amyloid nucleation score does the source give for SSYCGHCNYEPRSSWFILFF here?
Answer: 1.61 ± 0.072

Question: With SSYYISNVSMPTFSEFVVTL as the substance, how does the amyloid nucleation score read?
Answer: inactive

Question: For STCMFVGSDSRVRVRYIDIC, which amyloid nucleation score is on record?
Answer: inactive

Question: With STICDFNLICSAFANSVRLR as the substance, how does the amyloid nucleation score read?
Answer: inactive

Question: Which amyloid nucleation score does the source give for STIYKPVYFRVVTGFLMW here?
Answer: inactive

Question: Which amyloid nucleation score does the source give for STPSLGTSF here?
Answer: inactive

Question: With STSYGLRIVSKNDDYLRTAR as the substance, how does the amyloid nucleation score read?
Answer: 0.511 ± 0.19

Question: For STSYYPDVRVATRSSYWHFT, which amyloid nucleation score is on record?
Answer: 1.14 ± 0.18

Question: With STTGWSMYYWSIRADREVTY as the substance, how does the amyloid nucleation score read?
Answer: inactive

Question: For STVEENIY, which amyloid nucleation score is on record?
Answer: inactive

Question: For STVELWQELFAFNTRGGSNG, which amyloid nucleation score is on record?
Answer: inactive

Question: For STVQLYSPIQESVVTVFTNK, which amyloid nucleation score is on record?
Answer: inactive

Question: Which amyloid nucleation score does the source give for STVYSRHIKTDLTNCCKFFY here?
Answer: -0.657 ± 0.98

Question: With STYFLLILFEGKCFNCSVGK as the substance, how does the amyloid nucleation score read?
Answer: 1.38 ± 0.077

Question: Which amyloid nucleation score does the source give for SVCLSDRSSGS here?
Answer: inactive

Question: With SVCSCNAKYARIGMMLFLLG as the substance, how does the amyloid nucleation score read?
Answer: 1.16 ± 0.075

Question: With SVCWVFYCFFSLWCRLSESR as the substance, how does the amyloid nucleation score read?
Answer: inactive

Question: For SVDCYCTKKTYMQWSGSVRH, which amyloid nucleation score is on record?
Answer: 0.66 ± 0.23

Question: With SVDEVRCTCVYSCGVWPGGC as the substance, how does the amyloid nucleation score read?
Answer: inactive

Question: With SVDYQGYNGKKYLFTISLRC as the substance, how does the amyloid nucleation score read?
Answer: inactive

Question: With SVFFYKYQALIRNEGEK as the substance, how does the amyloid nucleation score read?
Answer: inactive

Question: With SVFRDSRPLLYDVNMVNGGG as the substance, how does the amyloid nucleation score read?
Answer: inactive

Question: Which amyloid nucleation score does the source give for SVIAMYQFVYYYVSKMVNID here?
Answer: inactive

Question: For SVLHLWGLDYFNGEYTMRKG, which amyloid nucleation score is on record?
Answer: 1.02 ± 0.17

Question: Which amyloid nucleation score does the source give for SVLVDY here?
Answer: inactive

Question: For SVMMVMEEFFQWGLKVNMRT, which amyloid nucleation score is on record?
Answer: -0.078 ± 0.54

Question: For SVNIMVMTVMNY, which amyloid nucleation score is on record?
Answer: 1.81 ± 0.058

Question: With SVNSGVMIAEPDLRWCGSAT as the substance, how does the amyloid nucleation score read?
Answer: inactive

Question: For SVPDCELVAYKSSLWCTHLT, which amyloid nucleation score is on record?
Answer: inactive

Question: With SVQLGIKNVITLRSYVYKTW as the substance, how does the amyloid nucleation score read?
Answer: -0.208 ± 0.6

Question: For SVRRYRSYLVLRRRTGHDRN, which amyloid nucleation score is on record?
Answer: inactive

Question: With SVRYTV as the substance, how does the amyloid nucleation score read?
Answer: inactive

Question: For SVSFFAF, which amyloid nucleation score is on record?
Answer: inactive

Question: For SVSLCFYFGIDYRILLMPEN, which amyloid nucleation score is on record?
Answer: 0.088 ± 0.73

Question: For SVSVVKSSEILSSMGPCGGT, which amyloid nucleation score is on record?
Answer: inactive

Question: With SVVAYFLLIRYGDYRYHLQM as the substance, how does the amyloid nucleation score read?
Answer: inactive

Question: With SVVQIHAERYE as the substance, how does the amyloid nucleation score read?
Answer: inactive

Question: For SWDHTVNKLGTPTVGSGSND, which amyloid nucleation score is on record?
Answer: inactive

Question: With SWGQVGYIEFFIGSSCHVS as the substance, how does the amyloid nucleation score read?
Answer: -0.378 ± 0.84

Question: For SWKVTMKPGNFWV, which amyloid nucleation score is on record?
Answer: inactive

Question: For SWLFGLCYF, which amyloid nucleation score is on record?
Answer: 2.06 ± 0.085

Question: With SWNRGNLTM as the substance, how does the amyloid nucleation score read?
Answer: inactive

Question: With SWNVFFFSGFRVPYYALTGV as the substance, how does the amyloid nucleation score read?
Answer: 0.254 ± 0.82

Question: With SWYYLQFIFMDFMINFCVME as the substance, how does the amyloid nucleation score read?
Answer: inactive

Question: Which amyloid nucleation score does the source give for SYAPKMSIRGMNFKTVMVFL here?
Answer: 2.37 ± 0.076

Question: With SYCKATRSVRQSNSARVVVR as the substance, how does the amyloid nucleation score read?
Answer: inactive

Question: Which amyloid nucleation score does the source give for SYCWRVSHGEYH here?
Answer: inactive

Question: For SYEAF, which amyloid nucleation score is on record?
Answer: inactive

Question: For SYFRRIRWQLEEHLLLLWR, which amyloid nucleation score is on record?
Answer: inactive

Question: Which amyloid nucleation score does the source give for SYFVAAVYYQDERNNGFCGQ here?
Answer: inactive

Question: For SYGQSCCQDTGLSRNALMQ, which amyloid nucleation score is on record?
Answer: inactive

Question: For SYHYFGRYCGFR, which amyloid nucleation score is on record?
Answer: inactive

Question: For SYKSLNCALFLQ, which amyloid nucleation score is on record?
Answer: 0.574 ± 0.24

Question: With SYLESISHPALESARVYVST as the substance, how does the amyloid nucleation score read?
Answer: inactive

Question: Which amyloid nucleation score does the source give for SYMPGNLSGLWAHLLMEKNC here?
Answer: inactive

Question: Which amyloid nucleation score does the source give for SYNDSLCLDVQTIYPLHSPS here?
Answer: inactive

Question: Which amyloid nucleation score does the source give for SYNILHDVSQLGTRQPPLE here?
Answer: inactive

Question: Which amyloid nucleation score does the source give for SYQDMLSYNRMR here?
Answer: inactive

Question: With SYQWWLCFFSLFFIGGDFRT as the substance, how does the amyloid nucleation score read?
Answer: inactive

Question: Which amyloid nucleation score does the source give for SYRIRCYAVNITPIAMYIIC here?
Answer: inactive

Question: Which amyloid nucleation score does the source give for SYRVCMCSTLVVVVSSRGLS here?
Answer: 0.823 ± 0.17

Question: For SYRYNRLYHWVHDLLCSTLV, which amyloid nucleation score is on record?
Answer: inactive

Question: With SYVVRLMSLVAWN as the substance, how does the amyloid nucleation score read?
Answer: inactive

Question: With TAALRIDDQRKAYLGVPRFS as the substance, how does the amyloid nucleation score read?
Answer: inactive

Question: With TACQNDCVGG as the substance, how does the amyloid nucleation score read?
Answer: inactive

Question: For TAFNHRMPGDLWRDDGGARV, which amyloid nucleation score is on record?
Answer: 0.784 ± 0.24

Question: For TAIYIDRNECSLKVYRIKDK, which amyloid nucleation score is on record?
Answer: 0.612 ± 0.44

Question: Which amyloid nucleation score does the source give for TALGSDMTYITARRI here?
Answer: 0.671 ± 0.15

Question: Which amyloid nucleation score does the source give for TARVMILP here?
Answer: inactive

Question: For TATLAC, which amyloid nucleation score is on record?
Answer: inactive

Question: For TAVWRFATSGKFFYSQSLGM, which amyloid nucleation score is on record?
Answer: 1.41 ± 0.14

Question: With TCCICIMSSYRLGRNLLIEL as the substance, how does the amyloid nucleation score read?
Answer: -0.075 ± 0.26

Question: Which amyloid nucleation score does the source give for TCCLIF here?
Answer: 1.87 ± 0.073

Question: With TCCVIICEFLRRMVSAQSSL as the substance, how does the amyloid nucleation score read?
Answer: 0.758 ± 0.28

Question: For TCFESLGLDVPIPYNRWVRS, which amyloid nucleation score is on record?
Answer: inactive

Question: With TCMSVNVFRGYIIAW as the substance, how does the amyloid nucleation score read?
Answer: inactive

Question: Which amyloid nucleation score does the source give for TCNKLIVRLCDAHKERA here?
Answer: 0.745 ± 0.13

Question: For TCNYMSGGFALRFTISYGGA, which amyloid nucleation score is on record?
Answer: inactive

Question: For TCSHIIPYWYGVRNSQVRYS, which amyloid nucleation score is on record?
Answer: inactive

Question: For TCSKPGSSSMHSAVGKTMSA, which amyloid nucleation score is on record?
Answer: inactive
